The numbers were not newly measured in PMC10813780, which cites them from elsewhere.

The data set has as its target TLR4 (Homo sapiens) (UniProt O00206).
UniProt O00206, sequence (O00206 24-839): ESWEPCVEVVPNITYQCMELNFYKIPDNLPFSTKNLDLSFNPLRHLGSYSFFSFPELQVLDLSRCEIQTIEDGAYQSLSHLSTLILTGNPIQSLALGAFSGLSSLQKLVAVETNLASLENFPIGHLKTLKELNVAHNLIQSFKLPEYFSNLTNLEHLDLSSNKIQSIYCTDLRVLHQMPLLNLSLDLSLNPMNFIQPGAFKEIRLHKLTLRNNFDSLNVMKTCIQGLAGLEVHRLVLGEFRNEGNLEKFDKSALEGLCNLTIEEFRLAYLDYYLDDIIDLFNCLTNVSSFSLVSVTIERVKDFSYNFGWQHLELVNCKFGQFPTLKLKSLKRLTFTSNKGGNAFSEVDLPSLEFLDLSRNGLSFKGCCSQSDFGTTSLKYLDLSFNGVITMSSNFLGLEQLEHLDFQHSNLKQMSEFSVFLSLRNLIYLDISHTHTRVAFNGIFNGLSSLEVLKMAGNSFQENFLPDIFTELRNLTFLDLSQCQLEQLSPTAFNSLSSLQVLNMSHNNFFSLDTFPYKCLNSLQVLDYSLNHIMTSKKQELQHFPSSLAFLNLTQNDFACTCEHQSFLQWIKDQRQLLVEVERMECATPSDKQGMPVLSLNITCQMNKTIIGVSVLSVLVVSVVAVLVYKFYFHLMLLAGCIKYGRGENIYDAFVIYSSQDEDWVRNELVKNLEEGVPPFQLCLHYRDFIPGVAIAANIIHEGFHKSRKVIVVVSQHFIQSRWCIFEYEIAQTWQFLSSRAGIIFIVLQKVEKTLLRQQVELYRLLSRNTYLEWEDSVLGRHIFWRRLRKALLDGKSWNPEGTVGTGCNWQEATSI

Turning to API5 (from UniProt Q9BZZ5), the Kd – broadly, a measure of binding affinity in units of concentration – is 430 nM.
